{"source": "patent US20140072613A1", "about": "(published 2014)", "binders": {"B1": {"name": "MMI-0300 (peptide)", "peptide": "FAKLAARLYRKALARQLGVAA"}, "B2": {"name": "MMI-0400 (peptide)", "peptide": "KAFAKLAARLYRKALARQLGVAA"}}, "assay_in_all_cases": "cell-based or functional assay", "key": {"EphB1(h)": {"molecular_target": "T1, EphB1(h) (human, UniProt P54762 564-984, limits assumed)", "T1 sequence (looked up)": "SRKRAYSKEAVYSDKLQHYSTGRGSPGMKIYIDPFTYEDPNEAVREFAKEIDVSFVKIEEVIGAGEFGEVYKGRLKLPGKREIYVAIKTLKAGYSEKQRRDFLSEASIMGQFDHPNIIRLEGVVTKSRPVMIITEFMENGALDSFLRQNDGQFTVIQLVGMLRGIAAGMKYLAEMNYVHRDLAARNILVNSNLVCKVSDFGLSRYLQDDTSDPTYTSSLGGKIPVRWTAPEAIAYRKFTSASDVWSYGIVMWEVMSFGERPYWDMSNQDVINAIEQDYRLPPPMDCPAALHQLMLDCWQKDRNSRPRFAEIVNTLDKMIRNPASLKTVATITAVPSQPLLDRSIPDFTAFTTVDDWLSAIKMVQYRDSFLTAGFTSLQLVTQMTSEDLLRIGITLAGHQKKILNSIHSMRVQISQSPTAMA"}, "cSRC(h)": {"molecular_target": "cSRC(h) (human, UniProt P12931 1-536)"}, "ROCK-I(h)": {"molecular_target": "ROCK-I(h) (human, UniProt Q13464 17-535, limits assumed)", "sequence (Q13464 17-535 limits assumed)": "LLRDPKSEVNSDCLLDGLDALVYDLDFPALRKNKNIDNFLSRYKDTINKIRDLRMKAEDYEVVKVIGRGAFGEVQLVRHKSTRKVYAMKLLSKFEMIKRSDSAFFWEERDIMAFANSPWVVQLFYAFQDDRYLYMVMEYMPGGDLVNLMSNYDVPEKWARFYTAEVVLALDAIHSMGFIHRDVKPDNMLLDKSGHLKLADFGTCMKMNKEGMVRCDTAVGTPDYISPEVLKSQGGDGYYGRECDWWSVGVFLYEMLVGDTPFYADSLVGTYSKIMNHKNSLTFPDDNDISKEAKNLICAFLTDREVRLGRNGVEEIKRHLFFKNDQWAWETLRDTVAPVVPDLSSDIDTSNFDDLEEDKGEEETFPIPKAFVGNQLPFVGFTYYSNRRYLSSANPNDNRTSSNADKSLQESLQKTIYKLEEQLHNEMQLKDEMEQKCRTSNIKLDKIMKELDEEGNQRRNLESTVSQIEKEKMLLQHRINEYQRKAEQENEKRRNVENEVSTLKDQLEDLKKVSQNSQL"}, "CDK2/cyclinA(h)": {"molecular_target": "CDK2/cyclinA(h) (human, UniProt P24941 1-298; P20248 1-432)"}, "SGK(h)": {"molecular_target": "T2, SGK(h) (human, UniProt O00141 60-431, limits assumed)", "T2 sequence (looked up)": "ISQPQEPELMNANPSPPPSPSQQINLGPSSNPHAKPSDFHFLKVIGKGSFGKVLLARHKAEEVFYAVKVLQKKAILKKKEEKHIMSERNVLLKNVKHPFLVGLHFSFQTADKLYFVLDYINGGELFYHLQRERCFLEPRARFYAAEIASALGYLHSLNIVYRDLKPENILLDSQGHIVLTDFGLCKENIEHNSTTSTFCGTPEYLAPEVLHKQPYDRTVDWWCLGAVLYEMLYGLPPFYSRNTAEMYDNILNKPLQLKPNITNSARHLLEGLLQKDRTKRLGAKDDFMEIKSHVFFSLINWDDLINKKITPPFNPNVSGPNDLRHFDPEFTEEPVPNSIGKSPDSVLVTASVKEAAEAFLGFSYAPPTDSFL"}, "CDK7/cyclinH/MAT1(h)": {"molecular_target": "CDK7/cyclinH/MAT1(h) (human, UniProt P50613 1-346; P51946 1-323; P51948 1-309)", "sequence (P50613 whole entry, chain 1 of 3)": "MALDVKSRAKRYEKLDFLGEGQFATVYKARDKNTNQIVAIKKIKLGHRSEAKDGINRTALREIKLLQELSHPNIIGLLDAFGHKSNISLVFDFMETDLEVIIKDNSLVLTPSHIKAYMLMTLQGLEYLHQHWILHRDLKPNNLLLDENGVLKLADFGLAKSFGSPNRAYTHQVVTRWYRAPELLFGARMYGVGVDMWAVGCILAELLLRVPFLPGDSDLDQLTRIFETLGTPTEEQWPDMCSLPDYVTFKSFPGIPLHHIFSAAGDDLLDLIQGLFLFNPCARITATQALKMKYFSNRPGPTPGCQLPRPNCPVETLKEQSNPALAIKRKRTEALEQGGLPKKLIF", "sequence (P51946 whole entry, chain 2 of 3)": "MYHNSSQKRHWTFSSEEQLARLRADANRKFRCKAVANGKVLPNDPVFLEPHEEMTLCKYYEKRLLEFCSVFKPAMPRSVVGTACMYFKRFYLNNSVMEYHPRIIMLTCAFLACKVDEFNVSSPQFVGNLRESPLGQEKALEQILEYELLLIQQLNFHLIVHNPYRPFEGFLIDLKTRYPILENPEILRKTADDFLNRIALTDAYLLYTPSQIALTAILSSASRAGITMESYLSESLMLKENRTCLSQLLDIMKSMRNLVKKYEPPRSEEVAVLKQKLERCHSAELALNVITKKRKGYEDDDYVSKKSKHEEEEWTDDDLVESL", "sequence (P51948 whole entry, chain 3 of 3)": "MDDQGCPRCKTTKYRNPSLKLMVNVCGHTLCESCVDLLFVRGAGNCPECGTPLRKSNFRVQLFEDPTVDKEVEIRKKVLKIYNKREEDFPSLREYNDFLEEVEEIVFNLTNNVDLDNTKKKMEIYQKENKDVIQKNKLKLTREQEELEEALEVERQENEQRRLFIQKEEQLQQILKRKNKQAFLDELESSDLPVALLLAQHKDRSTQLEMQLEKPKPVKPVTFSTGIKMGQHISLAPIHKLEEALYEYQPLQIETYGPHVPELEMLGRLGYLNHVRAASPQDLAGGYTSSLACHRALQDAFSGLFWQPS"}, "MELK(h)": {"molecular_target": "MELK(h) (human, UniProt Q14680 1-340, limits assumed)", "sequence (Q14680 1-340 limits assumed)": "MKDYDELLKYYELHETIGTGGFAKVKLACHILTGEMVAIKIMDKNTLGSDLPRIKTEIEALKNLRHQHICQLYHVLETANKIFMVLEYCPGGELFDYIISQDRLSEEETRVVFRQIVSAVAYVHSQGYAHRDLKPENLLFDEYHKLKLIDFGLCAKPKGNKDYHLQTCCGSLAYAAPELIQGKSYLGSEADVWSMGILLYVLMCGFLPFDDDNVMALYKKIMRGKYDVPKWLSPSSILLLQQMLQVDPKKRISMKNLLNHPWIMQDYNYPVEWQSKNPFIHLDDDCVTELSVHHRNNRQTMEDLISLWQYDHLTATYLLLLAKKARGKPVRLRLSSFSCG"}, "PRK2(h)": {"molecular_target": "PRK2(h) (human, UniProt Q16513 501-984, limits assumed)", "sequence (Q16513 501-984 limits assumed)": "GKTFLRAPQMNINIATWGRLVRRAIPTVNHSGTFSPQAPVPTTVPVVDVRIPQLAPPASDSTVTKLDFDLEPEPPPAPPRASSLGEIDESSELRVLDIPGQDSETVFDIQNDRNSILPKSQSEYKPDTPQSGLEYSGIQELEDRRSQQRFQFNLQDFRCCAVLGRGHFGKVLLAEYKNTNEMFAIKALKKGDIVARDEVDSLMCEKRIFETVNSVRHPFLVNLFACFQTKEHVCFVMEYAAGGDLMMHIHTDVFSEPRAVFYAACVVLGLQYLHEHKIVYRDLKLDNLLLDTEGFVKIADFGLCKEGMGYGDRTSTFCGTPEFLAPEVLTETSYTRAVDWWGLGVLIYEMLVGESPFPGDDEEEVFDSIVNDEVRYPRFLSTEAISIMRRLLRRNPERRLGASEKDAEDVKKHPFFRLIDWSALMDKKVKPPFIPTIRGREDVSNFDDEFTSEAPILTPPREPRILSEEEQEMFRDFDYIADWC"}, "IGF-1R(h)": {"molecular_target": "IGF-1R(h) (human, UniProt P08069 959-1367, limits assumed)", "sequence (P08069 959-1367 limits assumed)": "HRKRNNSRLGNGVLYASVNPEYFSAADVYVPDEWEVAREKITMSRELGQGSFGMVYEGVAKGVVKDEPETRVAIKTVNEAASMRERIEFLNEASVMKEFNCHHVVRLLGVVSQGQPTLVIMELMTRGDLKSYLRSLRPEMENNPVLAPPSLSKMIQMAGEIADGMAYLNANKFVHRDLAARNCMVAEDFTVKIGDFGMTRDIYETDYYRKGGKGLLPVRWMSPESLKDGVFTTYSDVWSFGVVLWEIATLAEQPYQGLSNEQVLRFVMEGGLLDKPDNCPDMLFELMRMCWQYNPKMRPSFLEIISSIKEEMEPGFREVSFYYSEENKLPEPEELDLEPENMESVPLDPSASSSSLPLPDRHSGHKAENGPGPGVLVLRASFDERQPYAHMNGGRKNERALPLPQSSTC"}, "ULK2(h)": {"molecular_target": "T3, ULK2(h) (human, UniProt Q8IYT8 1-631, limits assumed)", "T3 sequence (looked up)": "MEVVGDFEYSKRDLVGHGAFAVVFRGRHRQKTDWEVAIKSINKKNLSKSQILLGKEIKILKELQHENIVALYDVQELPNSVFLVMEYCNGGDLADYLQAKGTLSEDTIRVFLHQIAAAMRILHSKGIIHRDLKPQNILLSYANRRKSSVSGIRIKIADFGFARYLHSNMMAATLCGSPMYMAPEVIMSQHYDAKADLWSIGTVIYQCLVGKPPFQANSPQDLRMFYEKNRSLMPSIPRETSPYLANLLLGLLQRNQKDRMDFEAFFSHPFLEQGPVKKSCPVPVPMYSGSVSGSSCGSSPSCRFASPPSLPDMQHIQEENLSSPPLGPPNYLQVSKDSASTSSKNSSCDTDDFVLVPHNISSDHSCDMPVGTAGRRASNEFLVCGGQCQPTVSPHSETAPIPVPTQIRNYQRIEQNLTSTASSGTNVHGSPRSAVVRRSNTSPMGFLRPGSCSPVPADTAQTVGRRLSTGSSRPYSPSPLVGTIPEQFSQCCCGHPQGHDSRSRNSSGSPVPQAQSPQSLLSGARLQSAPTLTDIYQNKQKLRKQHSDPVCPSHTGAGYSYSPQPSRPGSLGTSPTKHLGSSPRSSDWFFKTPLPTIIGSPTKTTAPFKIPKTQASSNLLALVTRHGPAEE"}, "MSK2(h)": {"molecular_target": "MSK2(h) (human, UniProt O75676 1-772, limits assumed)", "sequence (O75676 whole entry)": "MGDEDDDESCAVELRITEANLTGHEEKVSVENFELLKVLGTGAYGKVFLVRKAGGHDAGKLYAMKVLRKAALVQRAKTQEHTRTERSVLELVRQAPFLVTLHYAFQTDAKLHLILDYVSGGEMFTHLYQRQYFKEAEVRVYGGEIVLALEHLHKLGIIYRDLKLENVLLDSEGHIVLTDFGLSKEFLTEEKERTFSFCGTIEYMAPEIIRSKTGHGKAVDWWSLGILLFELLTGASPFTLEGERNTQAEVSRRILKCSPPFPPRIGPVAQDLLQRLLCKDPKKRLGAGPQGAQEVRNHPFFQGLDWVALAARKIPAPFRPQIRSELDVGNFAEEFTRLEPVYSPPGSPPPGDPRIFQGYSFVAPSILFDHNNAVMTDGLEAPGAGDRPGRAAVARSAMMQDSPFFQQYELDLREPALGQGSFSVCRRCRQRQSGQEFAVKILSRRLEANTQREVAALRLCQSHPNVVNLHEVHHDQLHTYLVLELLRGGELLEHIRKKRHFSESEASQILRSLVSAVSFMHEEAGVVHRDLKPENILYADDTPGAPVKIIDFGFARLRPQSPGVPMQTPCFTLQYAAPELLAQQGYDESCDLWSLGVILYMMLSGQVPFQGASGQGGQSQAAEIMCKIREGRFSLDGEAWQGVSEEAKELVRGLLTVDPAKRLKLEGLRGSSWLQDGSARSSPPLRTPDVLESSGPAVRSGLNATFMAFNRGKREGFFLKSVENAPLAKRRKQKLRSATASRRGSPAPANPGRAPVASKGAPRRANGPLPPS"}, "TAO2(h)": {"molecular_target": "T4, TAO2(h) (human, UniProt Q9UL54 1-314, limits assumed)", "T4 sequence (looked up)": "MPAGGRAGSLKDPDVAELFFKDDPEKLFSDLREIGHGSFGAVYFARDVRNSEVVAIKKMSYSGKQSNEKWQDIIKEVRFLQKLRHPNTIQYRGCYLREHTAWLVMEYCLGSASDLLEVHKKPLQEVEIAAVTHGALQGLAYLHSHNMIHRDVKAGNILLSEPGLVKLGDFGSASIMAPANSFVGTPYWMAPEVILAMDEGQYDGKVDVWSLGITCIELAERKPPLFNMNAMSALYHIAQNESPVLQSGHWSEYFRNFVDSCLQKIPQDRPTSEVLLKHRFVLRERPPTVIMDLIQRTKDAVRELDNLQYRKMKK"}, "MKK6(h)": {"molecular_target": "T5, MKK6(h) (human, UniProt P52564 1-334)", "T5 sequence (looked up)": "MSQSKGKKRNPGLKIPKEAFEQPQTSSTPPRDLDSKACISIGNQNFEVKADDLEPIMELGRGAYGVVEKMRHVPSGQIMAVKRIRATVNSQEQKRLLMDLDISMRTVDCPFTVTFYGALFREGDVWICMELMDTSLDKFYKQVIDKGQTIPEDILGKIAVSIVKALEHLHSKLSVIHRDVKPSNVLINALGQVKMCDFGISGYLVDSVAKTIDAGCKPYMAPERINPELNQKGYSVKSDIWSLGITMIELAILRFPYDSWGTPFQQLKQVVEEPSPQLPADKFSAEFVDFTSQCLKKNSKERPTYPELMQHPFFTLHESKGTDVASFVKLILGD"}}}
{"binder": "B1", "values": [{"measurement": "% activity, 100 µM", "setting": "EphB1(h)", "result": 44, "unit": "%"}, {"measurement": "% activity, 100 µM", "setting": "cSRC(h)", "result": 26, "unit": "%"}, {"measurement": "% activity, 100 µM", "setting": "ROCK-I(h)", "result": 79, "unit": "%"}, {"measurement": "% activity, 100 µM", "setting": "CDK2/cyclinA(h)", "result": 86, "unit": "%"}, {"measurement": "% activity, 100 µM", "setting": "SGK(h)", "result": 48, "unit": "%"}, {"measurement": "% activity, 100 µM", "setting": "CDK7/cyclinH/MAT1(h)", "result": 65, "unit": "%"}, {"measurement": "% activity, 100 µM", "setting": "MELK(h)", "result": 16, "unit": "%"}, {"measurement": "% activity, 100 µM", "setting": "PRK2(h)", "result": 33, "unit": "%"}, {"measurement": "% activity, 100 µM", "setting": "IGF-1R(h)", "result": 119, "unit": "%"}, {"measurement": "% activity, 100 µM", "setting": "ULK2(h)", "result": 122, "unit": "%"}, {"measurement": "% activity, 100 µM", "setting": "MSK2(h)", "result": 56, "unit": "%"}, {"measurement": "% activity, 100 µM", "setting": "TAO2(h)", "result": 70, "unit": "%"}, {"measurement": "% activity, 100 µM", "setting": "MKK6(h)", "result": 48, "unit": "%"}]}
{"binder": "B2", "values": [{"measurement": "% activity, 100 µM", "setting": "EphB1(h)", "result": 58, "unit": "%"}, {"measurement": "% activity, 100 µM", "setting": "cSRC(h)", "result": 14, "unit": "%"}, {"measurement": "% activity, 100 µM", "setting": "ROCK-I(h)", "result": 73, "unit": "%"}, {"measurement": "% activity, 100 µM", "setting": "CDK2/cyclinA(h)", "result": 92, "unit": "%"}, {"measurement": "% activity, 100 µM", "setting": "SGK(h)", "result": 54, "unit": "%"}, {"measurement": "% activity, 100 µM", "setting": "CDK7/cyclinH/MAT1(h)", "result": 47, "unit": "%"}, {"measurement": "% activity, 100 µM", "setting": "MELK(h)", "result": 17, "unit": "%"}, {"measurement": "% activity, 100 µM", "setting": "PRK2(h)", "result": 27, "unit": "%"}, {"measurement": "% activity, 100 µM", "setting": "IGF-1R(h)", "result": 90, "unit": "%"}, {"measurement": "% activity, 100 µM", "setting": "ULK2(h)", "result": 131, "unit": "%"}, {"measurement": "% activity, 100 µM", "setting": "MSK2(h)", "result": 52, "unit": "%"}, {"measurement": "% activity, 100 µM", "setting": "TAO2(h)", "result": 74, "unit": "%"}, {"measurement": "% activity, 100 µM", "setting": "MKK6(h)", "result": 44, "unit": "%"}]}
